Assay results: patent US20190040155A1 (AFFIMED, published 2019)

Assays:
CD19 [1] = target: T1, CD19 (UniProt P15391 20-556, limits assumed); assay: flow cytometry on Raji cells, anti-His detection
T1 construct: whole, on cells; Raji is a human cell line; also called CD19 on CD19+/CD30- Raji cells
T1 sequence (looked up): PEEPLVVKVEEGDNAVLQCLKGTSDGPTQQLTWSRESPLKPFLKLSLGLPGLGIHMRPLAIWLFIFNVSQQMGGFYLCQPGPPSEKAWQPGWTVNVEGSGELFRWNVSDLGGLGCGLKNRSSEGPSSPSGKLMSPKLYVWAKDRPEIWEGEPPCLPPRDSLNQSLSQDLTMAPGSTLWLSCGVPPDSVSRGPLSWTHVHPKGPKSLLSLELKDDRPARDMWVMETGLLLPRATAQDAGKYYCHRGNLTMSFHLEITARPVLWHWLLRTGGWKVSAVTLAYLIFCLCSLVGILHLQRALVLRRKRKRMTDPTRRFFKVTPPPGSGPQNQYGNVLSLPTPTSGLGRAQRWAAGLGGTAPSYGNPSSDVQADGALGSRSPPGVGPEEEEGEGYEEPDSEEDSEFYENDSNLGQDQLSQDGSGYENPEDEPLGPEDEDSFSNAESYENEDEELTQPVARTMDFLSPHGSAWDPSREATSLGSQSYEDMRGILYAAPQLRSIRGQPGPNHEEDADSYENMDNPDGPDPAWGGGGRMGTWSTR
Protocol: (§1) Single-positive CD19+/CD30− Raji and CD19-/CD30+ KARPAS-299 cells as well as double-positive CD19+/CD30+ MEC-1 were stained with serial dilutions of the trispecific antibody molecules and cell surface bound antibodies were detected by mAb anti-His followed by FITC-conjugated goat anti-mouse IgG. Mean fluorescence intensities determined by flow cytometry were used to calculate KD values by non-linear regression. KD values for trispecific antibody molecules were determined in two independent experiments. […]
(§2) After repeated washing with FACS buffer, cell-bound antibodies were detected with 10 μg/mL anti-His mAb 13/45/31-2 (Dianova, Hamburg, Germany, cat.: DIA910-1MG) followed by 15 μg/mL FITC-conjugated goat anti-mouse antibody (Dianova, cat.: 115-095-062). […] The fluorescence of 2-5×10³ living cells was measured using a Beckman-Coulter FC500 MPL flow cytometer using the MXP software (Beckman-Coulter, Krefeld, Germany) or a Millipore Guava EasyCyte flow cytometer (Merck Millipore, Schwalbach, Germany). Mean fluorescence intensities of the cell samples were calculated using CXP software (Beckman-Coulter) or Incyte software (Merck Millipore, Schwalbach, Germany). […]

CD16A (FcγRIIIA) = target: T2, CD16A (FcγRIIIA) (human, UniProt P08637 17-254); assay: flow cytometry on primary NK cells
T2 construct: whole, on cells; also called CD16A on primary NK cells
Protocol: Aliquots of the indicated cell lines were incubated with […] of serial dilutions of His-tagged antibodies in FACS buffer (PBS, Invitrogen, cat.: 14190-169) containing 2% heat-inactivated FCS (Invitrogen, cat.: 10270-106), 0.1% sodium azide (Roth, Karlsruhe, Germany, cat.: A1430.0100) for 45 min on ice. Staining of NK-cells was performed in FACS buffer supplemented with 1 mg/mL polyclonal human antibody (Gammanorm, Octapharma, Langenfeld, Germany, cat.: PZN-2451445) to block binding of antibodies to Fc[…] receptors.
After repeated washing with FACS buffer, cell-bound antibodies were detected with 10 μg/mL anti-His mAb 13/45/31-2 (Dianova, Hamburg, Germany, cat.: DIA910-1MG) followed by 15 μg/mL FITC-conjugated goat anti-mouse antibody (Dianova, cat.: 115-095-062). The cells were then washed again and resuspended in 0.2 mL of FACS buffer containing 2 μg/mL propidium iodide (PI) (Sigma, cat.: P4170) in order to exclude dead cells. The fluorescence of 2-5×10³ living cells was measured using a Beckman-Coulter FC500 MPL flow cytometer using the MXP software (Beckman-Coulter, Krefeld, Germany) or a Millipore Guava EasyCyte flow cytometer (Merck Millipore, Schwalbach, Germany). Mean fluorescence intensities of the cell samples were calculated using CXP software (Beckman-Coulter) or Incyte software (Merck Millipore, Schwalbach, Germany). After subtracting the fluorescence intensity values of the cells stained with the secondary and tertiary reagents alone, the values were used for analysis using the GraphPad Prism (GraphPad Prism version 6.00 for Windows, GraphPad Software, La Jolla Calif. USA). For the calculation of KD, the equation for one-site-binding (hyperbolic) was used.

CD30 [2] = target: T3, CD30 (UniProt P28908 19-595, limits assumed); assay: flow cytometry on KARPAS-299 cells, anti-His detection
T3 construct: whole, on cells; also called CD30 on CD19-/CD30+ KARPAS-299 cells
T3 sequence (looked up): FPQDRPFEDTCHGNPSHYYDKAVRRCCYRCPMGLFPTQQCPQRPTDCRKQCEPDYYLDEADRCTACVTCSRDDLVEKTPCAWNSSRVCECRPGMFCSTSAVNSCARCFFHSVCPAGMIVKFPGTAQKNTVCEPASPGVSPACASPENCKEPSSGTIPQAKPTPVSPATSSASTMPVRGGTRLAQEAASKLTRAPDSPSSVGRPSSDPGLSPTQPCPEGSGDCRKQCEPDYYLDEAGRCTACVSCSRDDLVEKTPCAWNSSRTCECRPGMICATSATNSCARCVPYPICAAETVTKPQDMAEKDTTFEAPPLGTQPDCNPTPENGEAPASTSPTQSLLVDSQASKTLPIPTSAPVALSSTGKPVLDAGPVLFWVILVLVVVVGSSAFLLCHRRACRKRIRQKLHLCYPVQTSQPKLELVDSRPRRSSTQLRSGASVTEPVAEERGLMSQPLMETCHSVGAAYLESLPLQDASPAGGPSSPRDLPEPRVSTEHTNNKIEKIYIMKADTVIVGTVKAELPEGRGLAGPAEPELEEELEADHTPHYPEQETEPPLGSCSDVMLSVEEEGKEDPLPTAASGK
Protocol: as §1, §2

CD30 [3] = target: T3, CD30; assay: flow cytometry on Karpas-299 cells
Protocol: as §1, §2

CD19 [4] = target: T1, CD19; assay: flow cytometry on Raji cells
Protocol: as §1, §2

Measured: binding result

T2 sequence (P08637 17-254): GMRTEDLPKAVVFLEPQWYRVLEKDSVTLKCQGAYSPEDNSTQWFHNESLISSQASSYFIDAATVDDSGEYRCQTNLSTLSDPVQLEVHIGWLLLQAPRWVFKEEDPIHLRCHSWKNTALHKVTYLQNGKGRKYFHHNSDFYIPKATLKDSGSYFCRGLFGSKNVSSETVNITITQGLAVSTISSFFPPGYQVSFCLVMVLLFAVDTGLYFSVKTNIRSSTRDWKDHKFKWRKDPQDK

B1: aTriFlex_101 (other)
chain 1: QVQLQQSGAELARPGASVKMSCKASGYTFTTYTIHWVRQRPGHDLEWIGYINPSSGYSDYNQNFKGKTTLTADKSSNTAYMQLNSLTSEDSAVYYCARRADYGNYEYTWFAYWGQGTTVTVSSGGSGGSGGSGGSGGSGGSDIVMTQSPKFMSTSVGDRVTVTCKASQNVGTNVAWFQQKPGQSPKVLIYSASYRYSGVPDRFTGSGSGTDFTLTISNVQSEDLAEYFCQQYHTYPLTFGGGTKLEINGGSGGSGGSQVQLVQSGAEVKKPGESLKVSCKASGYTFTSYYMHWVRQAPGQGLEWMGIINPSGGSTSYAQKFQGRVTMTRDTSTSTVYMELSSLRSEDTAVYYCARGSAYYYDFADYWGQGTLVTVSSGGSGGSGGSQVQLVQSGAEVKKPGESLKVSCKASGYTFTSYYMHWVRQAPGQGLEWMGIINPSGGSTSYAQKFQGRVTMTRDTSTSTVYMELSSLRSEDTAVYYCARGSAYYYDFADYWGQGTLVTVSSGGSGGSGGSSYVLTQPPSVSVAPGQTARITCGGNNIGSKTVHWYQQKPGQAPVLVVYDDSDRPSGIPERFSGSNSGNTATLTISRVEAGDEADYYCQVGTDWSDHLQVFGGGTKLTVLGGSGGSGGSGGSGGSGGSGGSEVQLVQSGAEVKKPGESLKISCKGSGYSFTSNWIGWVRQMPGKGLEWMGMIWPGDSDTMYSPSFQGQVTISADESINTAYLQWSSLKASDTAMYYCARRETTTVGRYYYAMDYWGQGTLVTVSSAAAGSHHHHHH
chain 2: SYVLTQPSSVSVAPGQTATISCGGHNIGSKNVHWYQQRPGQSPVLVIYQDNKRPSGIPERFSGSNSGNTATLTISGTQAMDEADYYCQVWDNYSVLFGGGTKLTVLGGSGGSGGSSYVLTQPSSVSVAPGQTATISCGGHNIGSKNVHWYQQRPGQSPVLVIYQDNKRPSGIPERFSGSNSGNTATLTISGTQAMDEADYYCQVWDNYSVLFGGGTKLTVLAAAGSDYKDDDDK
notes: Tetravalent, trispecific (CD30, CD19, CD16A) Fv antibody without constant domains; heterodimer of two non-covalently associated polypeptides; also called antibody molecule a); construct a)
binds: CD19 [1] | CD16A (FcγRIIIA) | CD30 [2]

B2: aTriFlex_102 (other)
chain 1: SYVLTQPPSVSVAPGQTARITCGGNNIGSKTVHWYQQKPGQAPVLVVYDDSDRPSGIPERFSGSNSGNTATLTISRVEAGDEADYYCQVGTDWSDHLQVFGGGTKLTVLGGSGGSGGSGGSGGSGGSGGSEVQLVQSGAEVKKPGESLKISCKGSGYSFTSNWIGWVRQMPGKGLEWMGMIWPGDSDTMYSPSFQGQVTISADESINTAYLQWSSLKASDTAMYYCARRETTTVGRYYYAMDYWGQGTLVTVSSGGSGGSGGSQVQLVQSGAEVKKPGESLKVSCKASGYTFTSYYMHWVRQAPGQGLEWMGIINPSGGSTSYAQKFQGRVTMTRDTSTSTVYMELSSLRSEDTAVYYCARGSAYYYDFADYWGQGTLVTVSSGGSGGSGGSQVQLVQSGAEVKKPGESLKVSCKASGYTFTSYYMHWVRQAPGQGLEWMGIINPSGGSTSYAQKFQGRVTMTRDTSTSTVYMELSSLRSEDTAVYYCARGSAYYYDFADYWGQGTLVTVSSGGSGGSGGSQVQLQQSGAELARPGASVKMSCKASGYTFTTYTIHWVRQRPGHDLEWIGYINPSSGYSDYNQNFKGKTTLTADKSSNTAYMQLNSLTSEDSAVYYCARRADYGNYEYTWFAYWGQGTTVTVSSGGSGGSGGSGGSGGSGGSDIVMTQSPKFMSTSVGDRVTVTCKASQNVGTNVAWFQQKPGQSPKVLIYSASYRYSGVPDRFTGSGSGTDFTLTISNVQSEDLAEYFCQQYHTYPLTFGGGTKLEINAAAGSHHHHHH
chain 2: SYVLTQPSSVSVAPGQTATISCGGHNIGSKNVHWYQQRPGQSPVLVIYQDNKRPSGIPERFSGSNSGNTATLTISGTQAMDEADYYCQVWDNYSVLFGGGTKLTVLGGSGGSGGSSYVLTQPSSVSVAPGQTATISCGGHNIGSKNVHWYQQRPGQSPVLVIYQDNKRPSGIPERFSGSNSGNTATLTISGTQAMDEADYYCQVWDNYSVLFGGGTKLTVLAAAGSDYKDDDDK
notes: Tetravalent, trispecific (CD30, CD19, CD16A) Fv antibody without constant domains; heterodimer of two polypeptides; also called antibody molecule b); construct b)
binds: CD19 [1] | CD16A (FcγRIIIA) | CD30 [2]

B3: aTriFlex_104 (other)
chain 1: QVQLQQSGAELARPGASVKMSCKASGYTFTTYTIHWVRQRPGHDLEWIGYINPSSGYSDYNQNFKGKTTLTADKSSNTAYMQLNSLTSEDSAVYYCARRADYGNYEYTWFAYWGQGTTVTVSSGGSGGSGGSGGSGGSGGSDIVMTQSPKFMSTSVGDRVTVTCKASQNVGTNVAWFQQKPGQSPKVLIYSASYRYSGVPDRFTGSGSGTDFTLTISNVQSEDLAEYFCQQYHTYPLTFGGGTKLEINGGSGGSGGSSYVLTQPSSVSVAPGQTATISCGGHNIGSKNVHWYQQRPGQSPVLVIYQDNKRPSGIPERFSGSNSGNTATLTISGTQAMDEADYYCQVWDNYSVLFGGGTKLTVLGGSGGSGGSSYVLTQPSSVSVAPGQTATISCGGHNIGSKNVHWYQQRPGQSPVLVIYQDNKRPSGIPERFSGSNSGNTATLTISGTQAMDEADYYCQVWDNYSVLFGGGTKLTVLGGSGGSGGSSYVLTQPPSVSVAPGQTARITCGGNNIGSKTVHWYQQKPGQAPVLVVYDDSDRPSGIPERFSGSNSGNTATLTISRVEAGDEADYYCQVGTDWSDHLQVFGGGTKLTVLGGSGGSGGSGGSGGSGGSGGSEVQLVQSGAEVKKPGESLKISCKGSGYSFTSNWIGWVRQMPGKGLEWMGMIWPGDSDTMYSPSFQGQVTISADESINTAYLQWSSLKASDTAMYYCARRETTTVGRYYYAMDYWGQGTLVTVSSAAAGSDYKDDDDK
chain 2: QVQLVQSGAEVKKPGESLKVSCKASGYTFTSYYMHWVRQAPGQGLEWMGIINPSGGSTSYAQKFQGRVTMTRDTSTSTVYMELSSLRSEDTAVYYCARGSAYYYDFADYWGQGTLVTVSSGGSGGSGGSQVQLVQSGAEVKKPGESLKVSCKASGYTFTSYYMHWVRQAPGQGLEWMGIINPSGGSTSYAQKFQGRVTMTRDTSTSTVYMELSSLRSEDTAVYYCARGSAYYYDFADYWGQGTLVTVSSAAAGSHHHHHH
notes: Tetravalent, trispecific (CD30, CD19, CD16A) Fv antibody without constant domains; heterodimer of two polypeptides; also called antibody molecule d); construct d)
binds: CD30 [3] | CD16A (FcγRIIIA) | CD19 [4]
